Reference: PMC11985657

Target: Fc-FGF21 from E. coli (UniProt Q9NSA1)
Experiment: BLI

Kd: 0.0101 µM
Substance: Human KLB (from UniProt Q86Z14 1-996) (receptor)
